Assay results from IntAct's records for PubMed 28587924.

B1: Argininosuccinate synthase (Homo sapiens), P00966 (parent)
chain: MSSKGSVVLAYSGGLDTSCILVWLKEQGYDVIAYLANIGQKEDFEEARKKALKLGAKKVFIEDVSREFVEEFIWPAIQSSALYEDRYLLGTSLARPCIARKQVEIAQREGAKYVSHGATGKGNDQVRFELSCYSLAPQIKVIAPWRMPEFYNRFKGRNDLMEYAKQHGIPIPVTPKNPWSMDENLMHISYEAGILENPKNQAPPGLYTKTQDPAKAPNTPDILEIEFKKGVPVKVTNVKDGTTHQTSLELFMYLNEVAGKHGVGRIDIVENRFIGMKSRGIYETPAGTILYHAHLDIEAFTMDREVRKIKQGLGLKFAELVYTGFWHSPECEFVRHCIAKSQERVEGKVQVSVLKGQVYILGRESPLSLYNEELVSMNVQGDYEPTDATGFININSLRLKEYHRLQSKVTAK
partner: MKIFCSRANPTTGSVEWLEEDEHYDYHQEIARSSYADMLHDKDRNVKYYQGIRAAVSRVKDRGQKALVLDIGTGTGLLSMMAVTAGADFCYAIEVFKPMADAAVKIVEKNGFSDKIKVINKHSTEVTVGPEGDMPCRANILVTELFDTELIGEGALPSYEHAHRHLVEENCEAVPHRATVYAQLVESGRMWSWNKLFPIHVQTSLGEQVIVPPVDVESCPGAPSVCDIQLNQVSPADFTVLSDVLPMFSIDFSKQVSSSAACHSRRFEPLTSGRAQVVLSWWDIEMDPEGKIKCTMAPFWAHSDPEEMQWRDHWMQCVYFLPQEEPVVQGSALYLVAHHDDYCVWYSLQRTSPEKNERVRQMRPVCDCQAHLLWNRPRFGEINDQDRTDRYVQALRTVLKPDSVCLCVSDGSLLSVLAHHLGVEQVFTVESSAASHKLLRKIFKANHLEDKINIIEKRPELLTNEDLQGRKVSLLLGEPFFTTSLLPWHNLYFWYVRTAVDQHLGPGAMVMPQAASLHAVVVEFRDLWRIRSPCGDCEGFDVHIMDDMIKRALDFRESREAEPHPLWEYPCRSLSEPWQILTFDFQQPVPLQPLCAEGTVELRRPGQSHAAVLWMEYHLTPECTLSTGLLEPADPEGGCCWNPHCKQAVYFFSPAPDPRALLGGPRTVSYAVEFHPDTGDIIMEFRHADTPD

Experiments:
anm7_human PRMT7, Q9NVM4 [1] = variants of: B1; settings: with anm7_human PRMT7, Q9NVM4
anm7_human PRMT7, Q9NVM4 [2] = variants of: B1; settings: with anm7_human PRMT7, Q9NVM4; remark: listed apart in the source

Row | effect of a mutation on the interaction (anm7_human PRMT7, Q9NVM4 [1]) | effect of a mutation on the interaction (anm7_human PRMT7, Q9NVM4 [2]) | Variant
1 | disrupting interaction strength | decreasing interaction strength | MSSKGSVVLAYSGGLDTSCILVWLKEQGYDVIAYLANIGQKEDFEEARKKALKLGAKKVFIEDVSREFVEEFIWPAIQSSALYEDRYLLGTSLARPCIARKQVEIAQREGAKYVSHGATGKGNDQVRFELSCYSLAPQIKVIAPWRMPEFYNRFKGRNDLMEYAKQHGIPIPVTPKNPWSMDENLMHISYEAGILENPKNQAPPGLYTKTQDPAKAPNTPDILEIEFKKGVPVKVTNVKDGTTHQTSLELFMYLNEVAGKHGVGRIDIVENRFIGMKSRGIYETPAGTILYHAHLDIEAFTMDREVRKIKQGLGLKFAELVYTGFWHSPECEFVRHCIAKSQERVEGKVQVSVLKGQVYILGLESPLSLYNEELVSMNVQGDYEPTDATGFININSLRLKEYHRLQSKVTAK [R363L]
2 | decreasing interaction strength | – | MSSKGSVVLAYSGGLDTSCILVWLKEQGYDVIAYLANIGQKEDFEEARKKALKLGAKKVFIEDVSREFVEEFIWPAIQSSALYEDRYLLGTSLARPCIARKQVEIAQREGAKYVSHGATGKGNDQVRFELSCYSLAPQIKVIAPWRMPEFYNRFKGRNDLMEYAKQHGIPIPVTPKNPWSMDENLMHISYEAGILENPKNQAPPGLYTKTQDPAKAPNTPDILEIEFKKGVPVKVTNVKDGTTHQTSLELFMYLNEVAGKHGVGRIDIVENRFIGMKSRGIYETPAGTILYHAHLDIEAFTMDREVRKIKQGLGLKFAELVYTGFWHSPECEFVRHCIAKSQERVEGKVQVSVLKGQVYALGRESPLSLYNEELVSMNVQGDYEPTDATGFININSLRLKEYHRLQSKVTAK [I360A]
3 | disrupting interaction strength | decreasing interaction strength | MSSKGSVVLAYSGGLDTSCILVWLKEQGYDVIAYLANIGQKEDFEEARKKALKLGAKKVFIEDVSREFVEEFIWPAIQSSALYEDRYLLGTSLARPCIARKQVEIAQREGAKYVSHGATGKGNDQVRFELSCYSLAPQIKVIAPWRMPEFYNRFKGRNDLMEYAKQHGIPIPVTPKNPWSMDENLMHISYEAGILENPKNQAPPGLYTKTQDPAKAPNTPDILEIEFKKGVPVKVTNVKDGTTHQTSLELFMYLNEVAGKHGVGRIDIVENRFIGMKSRGIYETPAGTILYHAHLGIEAFTMDREVRKIKQGLGLKFAELVYTGFWHSPECEFVRHCIAKSQERVEGKVQVSVLKGQVYILGRESPLSLYNEELVSMNVQGDYEPTDATGFININSLRLKEYHRLQSKVTAK [D296G]
